Where “and” joins values, the source holds several entries; their conditions need not be identical. Equal entries are not always repeated.
Key:
[1] = target: HLA B*07 (human); experiment: T2B7 HLA stabilisation assay, flow cytometry, peptide at 200 ug/ml
[2] = target: HLA B*07 (human); experiment: T2B7 HLA stabilisation assay, flow cytometry, 10/20/200 ug/ml, four assays; conditions: for Binding results (total of four assays): scale: of 3 concentrations positive

RPAADGRTVM [WNVB7 0023]
Avg. Fold Inc. @ 200 (fold over background) [1]: 1.5 | Avg. MFI 200 [1]: 979 MFI | Binding number (binding score) [2]: 12 | Binding results (total of four assays) ([2]; in 4 assays): 3

GPGHEEPQLV [WNVB7 0011]
Avg. Fold Inc. @ 200 (fold over background) [1]: 1 | Avg. MFI 200 [1]: 849 MFI | Binding number (binding score) [2]: 2 | Binding results (total of four assays) (of 3 concentrations positive, in 1 assay) [2]: 2

PEDIDCWCTK [WNVB7 3399]
Avg. Fold Inc. @ 200 (fold over background) [1]: 1.1 | Avg. MFI 200 [1]: 990 MFI | Binding number (binding score) [2]: 1 | Binding results (total of four assays) (of 3 concentrations positive, in 1 assay) [2]: 1

TPGLRCLNLD [WNVB7 0024]
Avg. Fold Inc. @ 200 (fold over background) [1]: 1 | Avg. MFI 200 [1]: 850 MFI | Binding number (binding score) [2]: 2 | Binding results (total of four assays) ([2]; in 2 assays): 1

SPHRVPNYNL [WNVB7 0020]
Avg. Fold Inc. @ 200 (fold over background) [1]: 2.5 | Avg. MFI 200 [1]: 1610 MFI | Binding number (binding score) [2]: 12 | Binding results (total of four assays) ([2]; in 4 assays): 3

KPTGSASSLV [WNVB7 0015]
Avg. Fold Inc. @ 200 (fold over background) [1]: 1.7 | Avg. MFI 200 [1]: 1070 MFI | Binding number (binding score) [2]: 6 | Binding results (total of four assays) ([2]; in 2 assays): 2 and 1

PETPQGLAKI [WNVB7 3403]
Avg. Fold Inc. @ 200 (fold over background) [1]: 1 | Avg. MFI 200 [1]: 589 MFI | Binding number (binding score) [2]: 0 | Binding results (total of four assays) ([2]; in 4 assays): 0

TPAAPSYTLK [WNVB7 0009]
Avg. Fold Inc. @ 200 (fold over background) [1]: 1.5 | Avg. MFI 200 [1]: 954 MFI | Binding number (binding score) [2]: 8 | Binding results (total of four assays) (of 3 concentrations positive, in 1 assay) [2]: 3 and 1 | Binding results (total of four assays) ([2]; in 2 assays): 2

EPPEGVKYVL [WNVB7 0013]
Avg. Fold Inc. @ 200 (fold over background) [1]: 1.1 | Avg. MFI 200 [1]: 682 MFI | Binding number (binding score) [2]: 6 | Binding results (total of four assays) (of 3 concentrations positive, in 1 assay) [2]: 3 and 2 and 1

RPQRHDEKTL [WNVB7 0019]
Avg. Fold Inc. @ 200 (fold over background) [1]: 2.8 | Avg. MFI 200 [1]: 1640 MFI | Binding number (binding score) [2]: 11 | Binding results (total of four assays) (of 3 concentrations positive, in 1 assay) [2]: 2 | Binding results (total of four assays) ([2]; in 3 assays): 3

RPRWIDARVY [WNVB7 0017]
Avg. Fold Inc. @ 200 (fold over background) [1]: 1.9 | Avg. MFI 200 [1]: 1710 MFI | Binding number (binding score) [2]: 11 | Binding results (total of four assays) (of 3 concentrations positive, in 1 assay) [2]: 2 | Binding results (total of four assays) ([2]; in 3 assays): 3

VPGTKIAGML [WNVB7 0018]
Avg. Fold Inc. @ 200 (fold over background) [1]: 1.7 | Avg. MFI 200 [1]: 1090 MFI | Binding number (binding score) [2]: 6 | Binding results (total of four assays) (of 3 concentrations positive, in 1 assay) [2]: 3 and 2 | Binding results (total of four assays) ([2]; in 2 assays): 1

IPAGFEPEML [WNVB7 0008]
Avg. Fold Inc. @ 200 (fold over background) [1]: 1.9 | Avg. MFI 200 [1]: 1210 MFI | Binding number (binding score) [2]: 10 | Binding results (total of four assays) (of 3 concentrations positive, in 1 assay) [2]: 1 | Binding results (total of four assays) ([2]; in 3 assays): 3

VPCRGQDELV [WNVB7 0010]
Avg. Fold Inc. @ 200 (fold over background) [1]: 1 | Avg. MFI 200 [1]: 659 MFI | Binding number (binding score) [2]: 4 | Binding results (total of four assays) ([2]; in 2 assays): 2

Source: patent US20050048073A1, “Methods of determining west nile virus epitopes and method of using the same” (priority 2001, published 2005)
